Data taken from the supplement of paper PMC11865577.

tested on: G-clamp-N3 (biotin conjugate); assay: pull-down binding Z-score (relative to library population); higher = stronger binding; settings: RNA library: Library-1 (pre-miRNA loops + repeats)
In short: (§1)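 Streptavidin beads bearing 100 pmol of a biotin-conjugated small molecule were incubated for 60 min at 25 °C with 1 μg of heat-folded, Cy5- or Cy3-end-labelled RNA library in phosphate/NaCl/KCl buffer. Hot SDS eluted the RNA that stayed bound after three washes, and this RNA was hybridised for 20 h at 55.5 °C to a DNA barcode microarray. Binding was expressed as a Z-score against the library mean and standard deviation, after subtraction of a beads-only signal and trimmed averaging of barcoded replicate probes.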

Sequence	pull-down binding Z-score
GAUGUUUCUGCCAGUUUAGCGUC [hsa-mir-505]	-0.68
GAUUAUUGUAAGCAGGAUCCAUUCAAUAAUC [hsa-mir-5188]	-0.228
GAUUCGCUUUACUUAUGACGAAUC [hsa-mir-382]	-0.449
GAUUCUGAUUCAGGGACCAAGAUUC [hsa-mir-544a]	0.649
GAUUCUUGAGGCUUGGAAGAGUAAGGAUC [hsa-mir-6866]	-0.0295
GAUUGAAGUUGAAUAGUGC [hsa-mir-3161]	0.429
GAUUGCUAAUAGUACCAAUC [hsa-mir-34c]	-0.0934
GAUUGGUCUGUGGUCCUCUC [hsa-mir-3615]	0.109
GAUUGGUUAGCCUAAGACUUGUUCUGAUCCAAUC [hsa-mir-5701-1_5701-2_5701-3]	-0.75
GAUUUCUAUGAGAACAUC [hsa-mir-3675]	-0.499
GAUUUUUUAGAUUCUAAAGAAAC [hsa-mir-1255a]	-1.12
GCAAGGCUGUAGUGUGCACAGCCUUGA [hsa-mir-4452]	-0.383
GCAAGGUUGUUGGUGAUAUGGCUUCCUCUC [hsa-mir-4685]	0.872
GCAAUCAGGACUGGGUCAUUC [hsa-mir-6873]	-0.628
GCACCUGUUUGUGAC [hsa-mir-4718]	-1.21
GCACUCUGUAGUUUGGGUACACAGUGC [hsa-mir-5011]	1.49
GCAGAAAUCACUCCAGGAGCAACUGA [hsa-mir-936]	-0.3
GCAGAGAAGACAGUGAGCUUGCCAGUUCUGGUUUCCAACACUUCCUUUCCUGCG [hsa-mir-3911]	-1.12
GCAGAGCAGGACGCCGCUGCUGC [hsa-mir-8072]	-0.0779
GCAGAUAGUGGUCCUCUCCGUGCUACCGC [hsa-mir-106b]	-0.198
GCAGAUUCUCUCUCUC [hsa-mir-4279]	-1.39
GCAGCACUGUGCUGGGGAUGUUGC [hsa-mir-1301]	1.24
GCAGCAGGCACCUGCUUCC [hsa-mir-6868]	-0.816
GCAGCCAGUCCUGUCUCACCGC [hsa-mir-6812]	-0.666
GCAGCCUUCUGCCUUUGGCUUUCUGAAGCGAGCUGA [hsa-mir-7158]	-0.699
GCAGCCUUGC [hsa-mir-4298]	0.364
GCAGCUAGUAAUAUGAGCCCAGUUGC [hsa-mir-153-2]	-0.831
GCAGCUAGUAUUCUCACUCCAGUUGC [hsa-mir-153-1]	-1.31
GCAGCUGGAAUUCAAGCCCUGCUGC [hsa-mir-6882]	-0.0183

tested on: TO-3-N3-2 (biotin conjugate); assay: as above; settings: RNA library: Library-2
In short: as §1

Sequence	pull-down binding Z-score
GAGGGGCUUACUGCCCUGUGGGGCUCUCUGGACCCAGUGCCAUGCUUCUC [hsa-mir-6728]	-0.363
GAGGUCUUCCCAUGCUAAGAAGUCCUC [hsa-mir-2116]	0.115
GAGGUGGGAAGGCUGCCCCAAAUGGCCUCUAACAUCCCUUCCAGUCUCCUCCUC [hsa-mir-6127]	0.23
GAGGUUGCAGUGAGCCAAGAUCGUG [hsa-mir-4459]	0.278
GAGUACCUUCCAACACGAGCUCUC [hsa-mir-3664]	-0.173
GAGUAUUUUAAUACUGGCAUACUC [hsa-mir-1263]	0.095
GAGUCAGAAAAACUAC [hsa-mir-601]	-0.0131
GAGUCCUAUUUAUUUUUAGGAUAUUAGGAA [hsa-mir-5692c-2]	-0.148
GAGUGAAUC [hsa-mir-3610]	-0.35
GAGUGAGGCCCAGUGGUCACCGCCGCCCUC [hsa-mir-4754]	0.3
GAGUGGUCGGGUCGACUGAACC [hsa-mir-4726]	0.454
GAGUGUAAUUACGUACAUGCAGUAGCUC [hsa-mir-618]	0.182
GAGUUGCUGAGUGGGUUGAUCUC [hsa-mir-6764]	0.061
GAGUUUGGAAUUAAAAUCAAAACC [hsa-mir-181a-1]	-0.129
GAGUUUGGAGUCGGUGGGUGGAGCCAAACUG [hsa-mir-6860]	0.706
GAGUUUGGGAUUUGAAAAAACC [hsa-mir-181a-2]	0.292
GAGUUUGGGCAGCUCAGGCAAACC [hsa-mir-181c]	0.132
GAUAUGCCAUUAUGUGGGUCAUGAGGUGGUGA [hsa-mir-6864]	0.416
GAUCCAGCCCAGGCUGGUUCCGCUGAC [hsa-mir-4522]	0.351
GAUCCGGGAACCCACAGCCCCGUUC [hsa-mir-6783]	0.149
GAUCCUUUGUUCUGGAUC [hsa-mir-7856]	-0.283

Sequence	pull-down binding Z-score
GAUGAAGAUUAAUCCCUAAUCCCCAACA [hsa-mir-6757]	-0.0684
GAUGCUGUAUAUCUGAAAGGUAC [hsa-mir-101-2]	-0.144
GAUGCUGUCUAUUCUAAAGGUAC [hsa-mir-101-1]	-0.32
GAUGGAGGAAUCACAUGAAUUCAUC [hsa-mir-2115]	-0.362
GAUGGAUUCUUAUGCUCCAUC [hsa-mir-136]	-0.443
GAUGGGAUUAGAAACCAUAUGUCUCAUC [hsa-mir-3617]	-0.165
GAUGUAUCCAAGUACCCUGUGUUAUUUGGCAAUAAAUACAUC [hsa-mir-1298]	-0.361
GAUGUUUCUGCCAGUUUAGCGUC [hsa-mir-505]	-0.0968
GAUUAUUGUAAGCAGGAUCCAUUCAAUAAUC [hsa-mir-5188]	-0.383
GAUUCGCUUUACUUAUGACGAAUC [hsa-mir-382]	-0.107
GAUUCUGAUUCAGGGACCAAGAUUC [hsa-mir-544a]	0.354
GAUUCUUGAGGCUUGGAAGAGUAAGGAUC [hsa-mir-6866]	0.281
GAUUGAAGUUGAAUAGUGC [hsa-mir-3161]	0.274
GAUUGCUAAUAGUACCAAUC [hsa-mir-34c]	-0.216
GAUUGGUCUGUGGUCCUCUC [hsa-mir-3615]	-0.217
GAUUGGUUAGCCUAAGACUUGUUCUGAUCCAAUC [hsa-mir-5701-1_5701-2_5701-3]	0.14
GAUUUCUAUGAGAACAUC [hsa-mir-3675]	-0.57
GAUUUUUUAGAUUCUAAAGAAAC [hsa-mir-1255a]	-0.365
GCAAGGCUGUAGUGUGCACAGCCUUGA [hsa-mir-4452]	0.127
GCAAGGUUGUUGGUGAUAUGGCUUCCUCUC [hsa-mir-4685]	0.0915
GCAAUCAGGACUGGGUCAUUC [hsa-mir-6873]	0.166
